Data as given in doi:10.1101/2025.10.22.684016.

Biological target: mCherry-TurboID-CD9
Assay: proximity labelling + proximity ligation

Molecule: Gabrb3 (from UniProt P63080 26-473) (natural protein)
- PLA puncta (Streptavidin–Gabrb3), APP-TB mice: 1530 puncta
- PLA puncta (Streptavidin–Gabrb3), WT-TB mice: 1500 puncta

Molecule: Ncam1 (from UniProt P13595 20-1115) (natural protein)
- PLA puncta (Streptavidin–Ncam1), APP-TB mice: 1790 puncta
- PLA puncta (Streptavidin–Ncam1), WT-TB mice: 1260 puncta

B1: Gad1 (enzyme)
chain: MASSTPSPATSSNAGADPNTTNLRPTTYDTWCGVAHGCTRKLGLKICGFLQRTNSLEEKSRLVSAFRERQSSKNLLSCENSDQGARFRRTETDFSNLFAQDLLPAKNGEEQTAQFLLEVVDILLNYVRKTFDRSTKVLDFHHPHQLLEGMEGFNLELSDHPESLEQILVDCRDTLKYGVRTGHPRFFNQLSTGLDIIGLAGEWLTSTANTNMFTYEIAPVFVLMEQITLKKMREIVGWSNKDGDGIFSPGGAISNMYSIMAARYKYFPEVKTKGMAAVPKLVLFTSEHSHYSIKKAGAALGFGTDNVILIKCNERGKIIPADLEAKILDAKQKGYVPLYVNATAGTTVYGAFDPIQEIADICEKYNLWLHVDAAWGGGLLMSRKHRHKLSGIERANSVTWNPHKMMGVLLQCSAILVKEKGILQGCNQMCAGYLFQPDKQYDVSYDTGDKAIQCGRHVDIFKFWLMWKAKGTVGFENQINKCLELADYLYAKIKNREEFEMVFDGEPEHTNVCFWYIPQSLRGVPDSPERREKLHRVAPKIKALMMESGTTMVGYQPQGDKANFFRMVISNPAATQSDIDFLIEEIERLGQDL
- PLA puncta (Streptavidin–Gad1), APP-TB mice: 2120 puncta
